Our source for the percent of NMY-2 S1 fragment in the pellet with F-actin values is paper doi:10.1101/333286.

The experiment deals with F-actin (polymerized human platelet actin) (human) (UniProt P60709). The experiment in a line: co-sedimentation.

For “NMY-2(S1)-MLC4-MLC5 complex, NMY-2(R252A) S1 fragment (from UniProt G5EBY3 1-874; Q09510 1-172; Q9XVI9 1-142)”, the percent of NMY-2 S1 fragment in the pellet with F-actin amounted to 42%.
In the case of “NMY-2(S1)-MLC4-MLC5 complex, wild-type NMY-2 S1 fragment (from UniProt G5EBY3 1-874; Q09510 1-172; Q9XVI9 1-142)”, the percent of NMY-2 S1 fragment in the pellet with F-actin turned out to be 66%.
As to “NMY-2(S1)-MLC4-MLC5 complex, NMY-2(S251A) S1 fragment (from UniProt G5EBY3 1-874; Q09510 1-172; Q9XVI9 1-142)”, the percent of NMY-2 S1 fragment in the pellet with F-actin was 91%.
